Test results as given in PMC4390835.
Read-outs that look alike come from different tables or passages of the source.

Assays:
[1] = biological target: Pil1, C-terminally tagged with mVenus or mCerulean (S. cerevisiae) (UniProt P53252); assay: FRET or BRET
[2] = biological target: Pil1, C-terminally tagged with mVenus or mCerulean (S. cerevisiae) (UniProt P53252); assay: FRET or BRET; remark: listed apart in the source
[3] = biological target: Pil1, C-terminally tagged with mVenus or mCerulean (S. cerevisiae) (UniProt P53252); assay: FRET or BRET; remark: listed apart in the source
[4] = biological target: Pil1, C-terminally tagged with mVenus or mCerulean (S. cerevisiae) (UniProt P53252); assay: FRET or BRET; remark: listed apart in the source
[5] = biological target: Pil1, C-terminally tagged with mVenus or mCerulean (S. cerevisiae) (UniProt P53252); assay: FRET or BRET; remark: listed apart in the source
[6] = biological target: Pil1, C-terminally tagged with mVenus or mCerulean (S. cerevisiae) (UniProt P53252); assay: FRET or BRET; remark: listed apart in the source
[7] = biological target: Pil1, C-terminally tagged with mVenus or mCerulean (S. cerevisiae) (UniProt P53252); assay: number and brightness
[8] = biological target: Pil1, C-terminally tagged with mVenus or mCerulean (S. cerevisiae) (UniProt P53252); assay: FRET or BRET; remark: listed apart in the source
[9] = biological target: Lsp1, C-terminally tagged with mVenus or mCerulean (S. cerevisiae) (UniProt Q12230); assay: FRET or BRET
[10] = biological target: Lsp1, C-terminally tagged with mVenus or mCerulean (S. cerevisiae) (UniProt Q12230); assay: FRET or BRET; remark: listed apart in the source
[11] = biological target: Lsp1, C-terminally tagged with mVenus or mCerulean (S. cerevisiae) (UniProt Q12230); assay: FRET or BRET; remark: listed apart in the source

FRET efficiency [1] [%] | FRET efficiency [2] [%] | FRET efficiency [3] [%] | FRET efficiency [4] [%] | FRET efficiency [5] [%] | FRET efficiency [6] [%] | percent of Pil1-mVenus that corresponds to oligomers [7] [%] | FRET efficiency [8] [%] | FRET efficiency [9] [%] | FRET efficiency [10] [%] | FRET efficiency [11] [%] | Substance
10 | 28 | 5 | 15 | 18 | 10 | 8 | 20 |  |  |  | Pil1, C-terminally tagged with mVenus or mCerulean (from UniProt P53252 1-339) (natural protein)
 |  |  |  |  |  |  |  | 20 | 20 | 30 | Lsp1, C-terminally tagged with mVenus or mCerulean (from UniProt Q12230 1-341) (natural protein)
